Experimental data reported in patent WO2004044204A2 (dated 2004).
Values belong to the binder of their own block, whether it stands above or below them.

Tests used:
β-amyloid peptide 1-42 [1] = biological target: T1, β-amyloid peptide 1-42; assay: competition ELISA
T1 construct: Synthesised on solid phase; It was coated on plates or used in solution; one result is told for its fibrillar form; also called Aβ42; peptide Aβ42

β-amyloid peptide 1-42 [2] = biological target: T1, β-amyloid peptide 1-42; assay: ELISA with overlapping peptides that are fragments of Aβ42; the affinity is told for the carboxy terminal part

Kd (β-amyloid peptide 1-42 [1]): 30 nM
B1: VHH ALZ L35 (VHH)
VHH: EVQLQASGGGLVQAGGSLRLSCAASGSTFSINVIGWYRQAPGKQRELVAGISRSGNTNYADSVEGRFTISRDYAKNTVYLQMNSLKPEDTAVYYCHSKTYLLHMYWGQGTQVTVSS
notes: Alpaca VHH, produced soluble in E. coli HB2151 from pHEN-1 and tested as culture supernatant; It was detected with anti-c-myc 9E10; also called VHH-L35; VHH L35

Kd (β-amyloid peptide 1-42 [1]): 60 nM
B2: VHH ALZ L1-3 (VHH)
VHH: EVQLQASGGGLVQAGGSLRLSCSASASTTFSMNTMAWHRQAPGKQRSLVALIGATHSINYEDSVKGRFTISRDNAKNTVYLQMSSLKPEDTAVYYCNDWYWQMKGGSWGQGTQVTVSS
notes: Alpaca VHH, produced soluble in E. coli HB2151 from pHEN-1 and tested as culture supernatant; It was detected with anti-c-myc 9E10; also called VHH ALZ Ll-3; VHH-L1-3

Kd (β-amyloid peptide 1-42 [2]): ~10 nM
B3: VHH ALZ V31-1 (VHH)
VHH: EVQLQASGGGSVQPGGSLRLSCAASGFIFGWSTMSWVRQAPGKGLEWVSTISGGGSATTYTDSVKGRFTISRDRAKNTLYLQMNSLKPEDTAIYYCNADVSTGFRYQRKDYWGRGTQVTVSS
notes: Alpaca VHH, produced soluble in E. coli HB2151 from pHEN-1; It was detected with anti-c-myc 9E10; also called VHH-V31-1; VHH V31-1
